Biological target: T1, GST-SXL (Sex-lethal) (UniProt P19339)
T1 sequence (P19339 whole entry, looked up): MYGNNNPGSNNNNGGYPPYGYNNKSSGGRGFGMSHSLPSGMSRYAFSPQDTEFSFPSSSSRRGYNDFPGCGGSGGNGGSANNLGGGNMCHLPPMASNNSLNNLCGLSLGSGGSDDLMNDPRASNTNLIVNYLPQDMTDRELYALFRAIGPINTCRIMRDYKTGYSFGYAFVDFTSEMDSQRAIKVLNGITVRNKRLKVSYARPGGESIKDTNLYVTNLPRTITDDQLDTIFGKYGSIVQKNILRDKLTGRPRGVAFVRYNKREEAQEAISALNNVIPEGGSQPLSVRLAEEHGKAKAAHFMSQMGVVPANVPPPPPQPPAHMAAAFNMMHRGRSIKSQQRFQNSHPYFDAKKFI
Experiment: EMSA
Details: EMSA as in cited refs 28 and 40, buffer, salt and pH not stated, GST-SXL at 166, 55 and 18 ng/ul, SELEX binding at 30 C for 30 min in 100 ul

[1] = within 2-3-fold of tra Py-tract

Sequence | Kd [1] [nM] | Kd [nM]
UUUUUUUUUCUUUUUUUUGU [Gs2 3' UTR SXL-binding site RNA (cDNA SELEX clone 10-15h_14)] | 1 | 
UUUUUUUCUUUUUUUUCU [TnI 5' UTR SXL-binding site RNA (cDNA SELEX clone 10-15h_5)] | 1 | 
UUUUUGUUGUUUUUUUU [tra non-sex-specific polypyrimidine tract/3' splice site RNA] |  | 1

From PMC8143406
